Reference: US20080069777A1 (CBR INSTITUTE FOR BIOMEDICAL RESEARCH, published 2008)
Blank lines part the entries; values can stand above or below the binder they belong to.

How the values were obtained:
[1] = target: T1, human wild-type LFA-1 on cells (human, UniProt P20701 26-1170; P05107 23-769); experiment: inhibition of ICAM binding to human PBMCs; average of four experiments
T1 construct: also called LFA-1 on human PBMCs

[2] = target: T2, rabbit LFA-1 on PBMCs (rabbit, UniProt A0A5F9C4C9 27-1127; A0A5F9CF43 23-747); experiment: flow cytometry on PBMCs, no treatment
T2 construct: whole, on cells; also called rabbit PBMCs
Method: Whole blood from healthy animals (rat, sheep, rabbit, dog, rhesus monkey, cynomologus monkey and chimpanzee) were obtained from Valley Biomedical Products and Services, Inc. PBMCs were isolated from whole blood and cultured in low adherent 6-well plates overnight in RPMI 1640 with 10% FBS, 1× Pen/Strep. PBMCs were harvested, washed once with Hanks' Balanced Salt Solution (HBSS) 1×, 20 mM HEPES buffer containing 10 mM EDTA, and then twice with HBS. Cells were resuspended in HBSS at 2×10⁶ cells/ml, 100 μl aliquots per well were added into 96-well plates (Costar round bottom). After spinning down, cell pellets were resuspended in 50 μl activating buffer (HBSS, 10 mM MgCl₂, 2 mM EGTA) or inactivating buffer (HBSS, 2 mM CaCl₂, 2 mM MgCl₂). For certain wells, PMA or DTT was added to a final concentration of 10 ng/ml or 500 μM, respectively. Cells were then incubated at 37° C. for 20 minutes.
Antibodies that recognized CD-11a from the particular species (human, sheep, dog, rat, rabbit) (1:100 dilution) were used as positive controls. […] Cells were incubated at 4° C. for 30 minutes, then washed twice with 220 μl/well HBSS containing 0.05% NaN₃, resuspended in 200 μl/well HBSS and analyzed using the GUAVA EXPRESS™ protocol (Guava Technologies, Inc., Hayward Calif.).

[3] = target: T3, mouse LFA-1 on the EL4 cell line (mouse, UniProt P24063 24-1162; P11835 24-771); experiment: binding to EL4 cell line, no treatment
T3 construct: whole, on cells; also called Mouse EL4 Cell line
T3 sequence (P24063 24-1162, chain 1 of 2): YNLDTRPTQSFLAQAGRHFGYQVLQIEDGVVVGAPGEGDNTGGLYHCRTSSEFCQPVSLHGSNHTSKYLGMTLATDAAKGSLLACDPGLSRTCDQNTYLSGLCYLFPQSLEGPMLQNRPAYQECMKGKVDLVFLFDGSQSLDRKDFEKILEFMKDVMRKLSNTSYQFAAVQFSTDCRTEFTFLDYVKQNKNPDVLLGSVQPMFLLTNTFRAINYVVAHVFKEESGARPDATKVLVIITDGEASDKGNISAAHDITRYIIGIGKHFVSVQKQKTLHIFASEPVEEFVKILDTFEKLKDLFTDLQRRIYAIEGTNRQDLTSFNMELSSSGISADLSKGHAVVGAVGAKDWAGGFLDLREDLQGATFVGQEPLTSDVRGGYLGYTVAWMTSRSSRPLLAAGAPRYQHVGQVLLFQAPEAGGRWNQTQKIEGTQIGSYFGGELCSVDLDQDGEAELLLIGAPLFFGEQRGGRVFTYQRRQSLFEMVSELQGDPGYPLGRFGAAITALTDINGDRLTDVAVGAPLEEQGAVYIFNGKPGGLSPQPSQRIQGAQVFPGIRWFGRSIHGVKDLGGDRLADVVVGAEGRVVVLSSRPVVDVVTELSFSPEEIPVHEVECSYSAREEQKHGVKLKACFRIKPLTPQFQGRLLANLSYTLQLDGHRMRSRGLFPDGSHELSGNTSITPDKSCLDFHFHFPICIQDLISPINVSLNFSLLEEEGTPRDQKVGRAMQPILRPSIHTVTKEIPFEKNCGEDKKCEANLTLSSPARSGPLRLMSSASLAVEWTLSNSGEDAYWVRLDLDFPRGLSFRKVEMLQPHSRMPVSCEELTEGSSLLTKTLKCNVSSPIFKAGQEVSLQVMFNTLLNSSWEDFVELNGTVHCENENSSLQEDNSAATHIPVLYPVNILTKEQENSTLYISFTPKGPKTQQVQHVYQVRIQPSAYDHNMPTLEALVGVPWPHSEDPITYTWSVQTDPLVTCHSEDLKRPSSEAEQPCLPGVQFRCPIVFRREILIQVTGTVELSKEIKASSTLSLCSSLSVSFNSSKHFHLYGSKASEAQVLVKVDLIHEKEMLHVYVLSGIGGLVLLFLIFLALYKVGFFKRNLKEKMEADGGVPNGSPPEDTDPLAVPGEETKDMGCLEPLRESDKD
T3 sequence (P11835 24-771, chain 2 of 2): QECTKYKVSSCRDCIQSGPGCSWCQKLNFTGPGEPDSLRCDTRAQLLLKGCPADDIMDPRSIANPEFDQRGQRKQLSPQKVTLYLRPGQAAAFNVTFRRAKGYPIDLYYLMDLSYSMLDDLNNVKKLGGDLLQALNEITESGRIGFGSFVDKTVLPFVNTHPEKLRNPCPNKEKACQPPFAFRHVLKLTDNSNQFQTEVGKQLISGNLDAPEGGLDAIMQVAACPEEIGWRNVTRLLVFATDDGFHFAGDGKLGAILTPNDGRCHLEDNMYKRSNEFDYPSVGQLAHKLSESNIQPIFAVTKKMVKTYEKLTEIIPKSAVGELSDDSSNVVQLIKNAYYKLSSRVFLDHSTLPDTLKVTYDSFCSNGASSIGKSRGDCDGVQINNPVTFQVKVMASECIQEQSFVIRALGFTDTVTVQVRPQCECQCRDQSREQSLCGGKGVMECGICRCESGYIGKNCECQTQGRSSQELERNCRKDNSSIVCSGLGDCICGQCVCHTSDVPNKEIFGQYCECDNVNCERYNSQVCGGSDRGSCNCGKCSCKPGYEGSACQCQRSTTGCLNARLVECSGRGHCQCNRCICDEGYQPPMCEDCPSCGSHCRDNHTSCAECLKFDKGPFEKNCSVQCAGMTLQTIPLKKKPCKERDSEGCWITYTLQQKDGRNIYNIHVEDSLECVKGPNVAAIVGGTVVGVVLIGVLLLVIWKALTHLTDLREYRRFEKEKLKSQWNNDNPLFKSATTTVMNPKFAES

T1 sequence (P20701 other isoform, or with tags, fused parts or gaps limits assumed, chain 1 of 2): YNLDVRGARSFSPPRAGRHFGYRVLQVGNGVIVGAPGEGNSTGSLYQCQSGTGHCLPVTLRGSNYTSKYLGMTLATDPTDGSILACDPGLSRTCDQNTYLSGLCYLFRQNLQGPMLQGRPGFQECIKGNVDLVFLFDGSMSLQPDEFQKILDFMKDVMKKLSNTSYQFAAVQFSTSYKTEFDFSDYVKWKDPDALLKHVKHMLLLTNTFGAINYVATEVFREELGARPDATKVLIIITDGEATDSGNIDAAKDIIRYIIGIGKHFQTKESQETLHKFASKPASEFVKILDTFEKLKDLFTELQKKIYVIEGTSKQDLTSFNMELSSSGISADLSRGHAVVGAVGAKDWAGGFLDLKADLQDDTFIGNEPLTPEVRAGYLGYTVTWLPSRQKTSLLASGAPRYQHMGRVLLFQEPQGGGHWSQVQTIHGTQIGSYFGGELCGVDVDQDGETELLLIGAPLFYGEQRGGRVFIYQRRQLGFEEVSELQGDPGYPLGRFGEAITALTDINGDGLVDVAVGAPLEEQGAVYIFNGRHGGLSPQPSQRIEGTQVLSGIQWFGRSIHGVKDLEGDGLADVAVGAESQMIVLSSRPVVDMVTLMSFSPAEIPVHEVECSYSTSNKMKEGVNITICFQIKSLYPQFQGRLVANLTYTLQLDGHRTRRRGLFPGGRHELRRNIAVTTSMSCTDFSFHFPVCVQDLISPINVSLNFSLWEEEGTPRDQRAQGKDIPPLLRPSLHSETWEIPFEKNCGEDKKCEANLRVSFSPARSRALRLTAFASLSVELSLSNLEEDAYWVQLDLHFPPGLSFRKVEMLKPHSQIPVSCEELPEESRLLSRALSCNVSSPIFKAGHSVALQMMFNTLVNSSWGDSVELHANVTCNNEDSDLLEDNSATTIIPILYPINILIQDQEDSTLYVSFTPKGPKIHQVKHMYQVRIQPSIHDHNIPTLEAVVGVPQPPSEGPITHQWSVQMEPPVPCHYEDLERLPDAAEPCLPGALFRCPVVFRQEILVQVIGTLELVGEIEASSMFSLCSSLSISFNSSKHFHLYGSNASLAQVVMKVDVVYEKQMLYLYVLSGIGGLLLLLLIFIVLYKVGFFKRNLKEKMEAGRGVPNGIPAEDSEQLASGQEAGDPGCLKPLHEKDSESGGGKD
T1 sequence (P05107 other isoform, or with tags, fused parts or gaps limits assumed, chain 2 of 2): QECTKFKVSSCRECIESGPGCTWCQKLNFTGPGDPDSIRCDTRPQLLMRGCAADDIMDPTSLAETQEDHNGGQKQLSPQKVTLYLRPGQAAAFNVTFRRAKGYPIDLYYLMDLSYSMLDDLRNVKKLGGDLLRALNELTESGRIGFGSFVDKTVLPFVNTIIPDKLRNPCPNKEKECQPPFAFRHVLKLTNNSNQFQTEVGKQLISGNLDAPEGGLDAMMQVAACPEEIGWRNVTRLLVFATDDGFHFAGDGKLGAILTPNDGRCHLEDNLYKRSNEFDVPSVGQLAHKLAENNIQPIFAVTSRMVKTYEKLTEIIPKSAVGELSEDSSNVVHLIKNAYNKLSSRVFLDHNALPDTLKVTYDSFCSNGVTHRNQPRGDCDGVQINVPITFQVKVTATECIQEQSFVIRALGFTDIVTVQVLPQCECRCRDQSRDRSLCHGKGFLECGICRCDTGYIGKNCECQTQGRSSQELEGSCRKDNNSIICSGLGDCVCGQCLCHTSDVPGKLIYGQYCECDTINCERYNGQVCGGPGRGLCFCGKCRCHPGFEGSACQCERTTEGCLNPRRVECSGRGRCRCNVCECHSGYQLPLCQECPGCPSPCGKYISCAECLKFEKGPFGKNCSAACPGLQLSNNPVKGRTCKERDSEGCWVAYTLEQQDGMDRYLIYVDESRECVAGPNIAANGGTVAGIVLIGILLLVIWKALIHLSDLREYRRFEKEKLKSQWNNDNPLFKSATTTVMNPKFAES

IC50 [1]: 0.54 nM
B1: D2-57 IgG1 (antibody, V domains shown)
VH: EVQLLESGGGLVQPGGSLRLSCAASGFTFSRYVMWWVRQAPGKGLEWVSYIWPSGGNTYYADSVKGRFTISRDNSKNTLYLQMNSLRAEDTAVYYCASSYDFWSNAFDIWGQGTMVTVSS
VL: DIQMTQSPSSLSASVGDRVTITCRASQSIGSYLNWYQQKTGKAPKALIYAASSLQSGVPSRFSGSGSGTDFTLTISSLQLEDFATYYCQQSYSTPSFGQGTKVEIKR

binding result [2]: no binding (tested: 10 µg/ml)
binding result [3]: no binding
B2: DX-2001 (germlined variant of D2-57, IgG4) (antibody, V domains shown)
VH: B1 VH
VL: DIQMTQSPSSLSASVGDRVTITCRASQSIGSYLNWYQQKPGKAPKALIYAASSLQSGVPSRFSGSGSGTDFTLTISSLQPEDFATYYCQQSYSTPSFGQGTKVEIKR
